One molecule from article PMC7203678 can be followed below.

In this assay the target is T1, C-reactive protein human, recombinant (human), P02741.
T1 chain: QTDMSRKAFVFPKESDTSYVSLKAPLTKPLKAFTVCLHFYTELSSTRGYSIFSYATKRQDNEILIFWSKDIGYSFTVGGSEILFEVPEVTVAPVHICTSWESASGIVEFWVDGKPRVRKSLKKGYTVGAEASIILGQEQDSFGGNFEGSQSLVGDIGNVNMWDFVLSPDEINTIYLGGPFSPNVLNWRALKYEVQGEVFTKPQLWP
Description: native MS. Particulars: remark: other sources report otherwise.

B1: C-reactive protein human, recombinant, P02741 19-224 (natural protein)
chain: T1 chain
B1: the stoichiometry N (in general, the number of molecules, sites or subunits per partner or assembly) stood at 5.
